Reactivity of the CCR1 receptor (Tango CCR1-bla U20S reporter cells, Blue/Green Emission ratio) data for one substance are collected here from US20190153055A1.

For the experiment, the target named is receptor CCR1 (UniProt P32246). Nature of the experiment: cell-based or functional assay.
UniProt P32246, sequence (P32246 whole entry): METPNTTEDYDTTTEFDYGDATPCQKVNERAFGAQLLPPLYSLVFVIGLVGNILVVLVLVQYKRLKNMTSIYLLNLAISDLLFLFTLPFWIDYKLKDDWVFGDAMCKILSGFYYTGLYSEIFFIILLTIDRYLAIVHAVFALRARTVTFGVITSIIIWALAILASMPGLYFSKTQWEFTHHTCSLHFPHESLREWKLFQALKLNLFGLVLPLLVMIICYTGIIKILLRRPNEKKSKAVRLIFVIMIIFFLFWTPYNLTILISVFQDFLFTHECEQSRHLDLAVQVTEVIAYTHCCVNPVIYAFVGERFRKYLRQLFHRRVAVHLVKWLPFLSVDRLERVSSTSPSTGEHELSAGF

For the substance “CCL3 (D27A, Δ1, CCL3α) (from UniProt P10147 24-92) (ligand)”, the reactivity of the CCR1 receptor (Tango CCR1-bla U20S reporter cells, Blue/Green Emission ratio) worked out at 0.63 nM.
